Laboratory results published in the Human Domainome abundance scans (Beltran et al. 2025).
± gives the uncertainty stated by the source.

B1: Histone-lysine N-methyltransferase SETD2, residues 2382 to 2430; numbered along this chain, Q9BYW2 (parent)
chain: SPPKPKTIVLPPNWKTARDPEGKIYYYHVITRQTQWDPPTWESPGDDAS

Variants of: B1
Assay: abundance fitness (aPCA) (normalised: wild type 0, dead -1); higher = more abundant; growth selection in yeast, the domain comes from the species named
Details: Homo sapiens

Abundance fitness, by site and new letter:
G45: A 0.087 ± 0.041; C -0.002 ± 0.074; D -0.061 ± 0.055; E 0.02 ± 0.065; F 0.019 ± 0.069; H -0.73 ± 0.31; I 0.125 ± 0.1; K 0.006 ± 0.088; L 0.076 ± 0.046; M -0.082 ± 0.063; P 0.233 ± 0.035; Q -0.313 ± 0.089; R 0.035 ± 0.047; S 0.025 ± 0.04; T -0.141 ± 0.073; V -0.177 ± 0.059; W 0.026 ± 0.054; Y 0.049 ± 0.081
D46: C -0.31 ± 0.042; E -0.117 ± 0.068; F -0.361 ± 0.13; G -0.119 ± 0.032; H 0.119 ± 0.1; I -0.164 ± 0.066; K -0.166 ± 0.093; L -0.053 ± 0.033; M -0.297 ± 0.092; N -0.11 ± 0.043; P -0.069 ± 0.044; Q -0.358 ± 0.1; R -0.286 ± 0.046; S -0.167 ± 0.039; T -0.292 ± 0.087; V -0.064 ± 0.042; W -0.358 ± 0.084; Y -0.436 ± 0.14
D47: A -0.051 ± 0.033; C -0.206 ± 0.072; E 0.035 ± 0.051; F -0.443 ± 0.1; G -0.002 ± 0.032; H -0.028 ± 0.042; I -0.337 ± 0.075; K -0.16 ± 0.054; L -0.107 ± 0.042; M -0.226 ± 0.077; N -0.241 ± 0.062; P -0.2 ± 0.078; Q 0.257 ± 0.064; R -0.146 ± 0.041; S 0.037 ± 0.056; T -0.032 ± 0.059; V -0.063 ± 0.037; W -0.288 ± 0.068; Y -0.023 ± 0.054
A48: C 0.085 ± 0.044; D 0.1 ± 0.12; E 0.1 ± 0.036; F -0.094 ± 0.068; G -0.014 ± 0.054; H -0.081 ± 0.14; I 0.095 ± 0.16; K 0.091 ± 0.047; L -0.077 ± 0.056; M 0.151 ± 0.09; N 0.153 ± 0.097; P 0.08 ± 0.072; Q -0.153 ± 0.1; R 0.107 ± 0.057; S -0.027 ± 0.067; T 0.147 ± 0.041; V -0.164 ± 0.057; W -0.07 ± 0.072; Y 0.036 ± 0.048
S49: A -0.418 ± 0.093; C -0.467 ± 0.14; E -0.279 ± 0.19; F -0.391 ± 0.099; I -0.088 ± 0.048; M -0.154 ± 0.33; N -0.696 ± 0.2; P 0.043 ± 0.05; Q -0.031 ± 0.2
